# Patent publication US20230416371A1
# Legend:
# [1] = target: human FcγRIIa R (allotype R131) extracellular domain (human) (UniProt P12318); experiment: SPR Biacore 8K+; KD of G1d divided by KD of this antibody
# [2] = target: human FcγRIIa R (allotype R131) extracellular domain (human) (UniProt P12318); experiment: SPR Biacore 8K+; KD for FcγRIIb divided by KD for this FcγR
# [3] = target: human FcγRIIa R (allotype R131) extracellular domain (human) (UniProt P12318); experiment: SPR Biacore 8K+, 25 C, antibody captured, FcγR as analyte, 1:1 Langmuir model
# Sequence of human FcγRIIa R (allotype R131) extracellular domain (human) (P12318 34-217 H167R): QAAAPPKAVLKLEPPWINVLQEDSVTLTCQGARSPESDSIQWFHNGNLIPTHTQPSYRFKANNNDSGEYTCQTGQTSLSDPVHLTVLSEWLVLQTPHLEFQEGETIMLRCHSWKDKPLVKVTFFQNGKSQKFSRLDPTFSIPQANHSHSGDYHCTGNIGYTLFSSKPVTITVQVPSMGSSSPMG
# Sequence of EGL-GASDALIE (H240-GASDALIE/L73-k0) (antibody) (heavy): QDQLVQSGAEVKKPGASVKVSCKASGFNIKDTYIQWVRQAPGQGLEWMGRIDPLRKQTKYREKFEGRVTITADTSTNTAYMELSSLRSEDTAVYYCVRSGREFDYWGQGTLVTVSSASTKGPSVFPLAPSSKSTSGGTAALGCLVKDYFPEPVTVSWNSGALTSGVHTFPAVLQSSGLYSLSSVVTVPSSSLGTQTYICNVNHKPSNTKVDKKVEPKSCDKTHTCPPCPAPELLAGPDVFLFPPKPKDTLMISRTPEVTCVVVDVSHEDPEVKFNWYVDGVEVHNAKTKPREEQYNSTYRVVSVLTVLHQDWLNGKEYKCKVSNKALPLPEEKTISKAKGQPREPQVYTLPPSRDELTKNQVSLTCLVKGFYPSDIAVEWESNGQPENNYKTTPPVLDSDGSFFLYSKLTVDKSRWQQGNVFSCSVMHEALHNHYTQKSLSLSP
# Sequence of EGL-GASDALIE (H240-GASDALIE/L73-k0) (antibody) (light): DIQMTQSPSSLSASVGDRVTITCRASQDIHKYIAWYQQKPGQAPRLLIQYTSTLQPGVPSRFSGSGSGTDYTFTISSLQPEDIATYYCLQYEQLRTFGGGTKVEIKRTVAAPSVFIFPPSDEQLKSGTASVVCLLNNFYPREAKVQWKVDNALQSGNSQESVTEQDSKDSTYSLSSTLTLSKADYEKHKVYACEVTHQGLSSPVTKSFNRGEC
# Sequence of EGL-afucosyl (H240-G1d/L73-k_glycomab) (antibody) (heavy): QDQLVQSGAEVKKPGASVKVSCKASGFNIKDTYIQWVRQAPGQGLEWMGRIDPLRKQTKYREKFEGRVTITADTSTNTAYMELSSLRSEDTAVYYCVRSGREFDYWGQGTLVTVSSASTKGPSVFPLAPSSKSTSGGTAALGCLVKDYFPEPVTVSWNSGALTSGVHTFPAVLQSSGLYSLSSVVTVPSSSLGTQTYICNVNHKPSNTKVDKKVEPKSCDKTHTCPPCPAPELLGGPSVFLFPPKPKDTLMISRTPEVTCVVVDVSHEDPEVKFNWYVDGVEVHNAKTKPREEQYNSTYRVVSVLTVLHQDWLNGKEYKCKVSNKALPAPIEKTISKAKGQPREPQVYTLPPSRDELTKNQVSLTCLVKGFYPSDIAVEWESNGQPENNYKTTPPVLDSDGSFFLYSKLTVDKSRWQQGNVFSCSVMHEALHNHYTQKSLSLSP
# Sequence of EGL-afucosyl (H240-G1d/L73-k_glycomab) (antibody) (VL): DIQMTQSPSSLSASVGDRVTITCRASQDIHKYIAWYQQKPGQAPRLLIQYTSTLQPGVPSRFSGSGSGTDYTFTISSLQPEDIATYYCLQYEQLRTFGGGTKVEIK
Relative value to KD between G1d and hFcγRs [1] [times],A/I ratio (KD for FcγRIIb divided by KD for each FcγR) [2],Kd [3] [nM],Substance
10.3,16.5,161,EGL-GASDALIE (H240-GASDALIE/L73-k0) (antibody)
1.8,6,946,EGL-afucosyl (H240-G1d/L73-k_glycomab) (antibody)
